Data from paper PMC2993699.
One block for each substance: values may come before it.

Tests used:
[1] = molecular target: Pph with a C-terminal strep-tag and an N-terminal his-tag (His10-Ppr(Δ1-601)-StrepTag II, pET16b-Pph) (R. centenaria); test: SEC; crude soluble extract of E. coli C41 (DE3) with pET16b-Pph on Sephadex G-200, non-reducing conditions, 20 mM Tris pH 7.4, 40 mM NaCl, 20% glycerol; fractions by SDS-PAGE and Western blot against strep tag II
[2] = molecular target: Pph with a C-terminal strep-tag and an N-terminal his-tag (His10-Ppr(Δ1-601)-StrepTag II, pET16b-Pph) (R. centenaria); test: resonant mirror spectroscopy (Iasys biosensor cuvette); purified Pph (50 μg/ml) immobilised on an aminosilane cuvette (via strep-tag to streptactin by the results); increasing concentrations of purified Rc-CheW, 30 minutes each; fractional saturation, Scatchard plot
[3] = molecular target: R. centenaria CheW (Rc-CheW) containing an N-terminal his-tag (R. centenaria) (UniProt P72251); test: pull-down; as a1, residual ATP hydrolyzed by adding apyrase
[4] = molecular target: R. centenaria CheW (Rc-CheW) containing an N-terminal his-tag (R. centenaria) (UniProt P72251); test: pull-down; as a1, with increasing amounts of added ATP (0-20 mM)
[5] = molecular target: R. centenaria CheW (Rc-CheW) containing an N-terminal his-tag (R. centenaria) (UniProt P72251); test: pull-down; 50 μg purified his-Rc-CheW (bait) mixed with one in vitro translated [35S]-labelled prey, overnight at 37°C, bound to Cu(II)-Sepharose in 20 mM sodium phosphate pH 7.7, 200 mM NaCl, 50 mM imidazole; eluted with 500 mM imidazole; phosphorimaging; no ATP added (low ATP level, 2 mM, from the translation reaction)

Chain of UniProt P72251 (P72251 entry or part of it): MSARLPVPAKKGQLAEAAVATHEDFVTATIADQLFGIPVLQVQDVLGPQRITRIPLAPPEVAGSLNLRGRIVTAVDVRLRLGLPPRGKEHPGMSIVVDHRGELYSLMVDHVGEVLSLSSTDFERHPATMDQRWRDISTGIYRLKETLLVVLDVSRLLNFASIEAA

- stoichiometry N [1]: 2
Substance: Pph with a C-terminal strep-tag and an N-terminal his-tag (His10-Ppr(Δ1-601)-StrepTag II, pET16b-Pph) (domain or fragment)

- Kd [2]: 130 nM
Substance: R. centenaria CheW (Rc-CheW) containing an N-terminal his-tag (from UniProt P72251 1-165) (natural protein)

- bound Pph with apyrase (% of input) [3]: 5%
- Rc-CheW-bound Pph with added ATP (% of input) [4]: 24%
- co-elution rate (% of input Pph) [5]: 13%
Substance: histidine kinase domain Pph of Ppr, in vitro translated and [35S]-methionine labelled (from pSK4) (domain or fragment)
